# Data reported in the domain aggregation screens of Martell et al. (2025).
# Assay: soluble fraction after stress (log2 fold change); higher = more stays soluble; pooled small domains, quantitative proteomics
# Settings: stress: pH 4
# Summary of the method: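 Pooled custom libraries of small protein domains were subjected to pH 4 and measured by high-throughput quantitative proteomics. The log2 fold change in soluble amount per domain is reported, higher values meaning more remained soluble. This is used as a measure of aggregation propensity.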
row,Sequence,soluble fraction (log2)
1,HMKPSTVSVPDVSGDKLSTAKMIIRKSGLKVGDVQKIEDDNVGAGKVVRTNPSAGSKKREGSSVDIFVASA,0.111
2,HMKPTVKGHFTRKESNVGGYADVRGWGVAGTPSMMANQSKDTRRFSTLIVPGRSVNVHPSPTKEAIIWWQS,-0.138
3,HMKPTVKKLLAALPELRSGQPLHLSVATRKLRDAGLLGKNASSPTLFRNYVAQFELIPENQPNAVRYR,0.268
4,HMKPVSEMDNMEWVREQYFQNMIYEIGEWVKDKKTGIVGEIVKRGTNYVTIVQEDFSLHKIWLEDLETTE,-0.368
5,HMKQDYYSILGVMRDASQEEIKRAYLDAAQRLHPDRNTSAGDTEMFLDVQQAYEVLSNPKRRAQYDATLP,0.169
6,HMKQEFEMGLPNGVGEQMLAHAIEKFDVKLEHSEFGPKLIGTYEELEKAKVFLYEAIEARLNQLE,-0.875
7,HMKQISNTDELETMVKKIIDDNEEQVNKYRGGNEKLFGWFVGQAMKNTGGTANPKVVNEILSKLLK,≥ 0.43
8,HMKQLLHLVIGGELKDVRGIEFEDLSKIDFVGAFPSYKAAYDAWKNAAQRTVDNAEMRYFILHAHR,-1.37
9,HMKQLRVLGIVKAGSILKNSDGSIEFVIEDSGKSLLVKYKGVIPDIFKDGVEAVVEGDLRGSVFNADKLF,-0.2
10,HMKQMNETQQKAFEIYLDSATFETDYKPISEEQLAAKLDALGLKGSSSSINRWKKDFNWAQALQNKVTLAM,-0.227
11,HMKQQNFADLAGRFVFNADNEVVFNFGKHKNVPVATVLKNEPGYYGWMMGGDFPLFTKKILKQIKEA,-0.952
12,HMKQTFGAMLAALRKEKGMTQLELAEQMGVTDKAVSKWERDLSFPDVTSLPRLAEILEVSVDELMQ,-0.724
13,HMKQVNVVSVIGQSEANAKTTLTGLGLKVNVAYEEDTSKADGIVLKQSLEGGKTVNEGTTITITVNKIA,-0.567
14,HMKQVSDTGAIDAAIREVMDANPDKVAEYRSGKDKLFGFFVGQIMRAMAGKAAPVVVNDRLKALLD,0.32
15,HMKQVTVGGTINAGGARIYADSYGNGGGRQTFGSDPIYTVLQERNGYILTRWHKLSSGYTGWFKKSDVSA,-0.00968
16,HMKQYSFEISKADFKKISENFNFKIINEINDSLIISLNDKNINLDELLIFFVERKIKVRSIENI,-1.06
17,HMKREELTQQTKQNLREAFWSLYIQKPIEKITVKEITDIAGYNRGTFYLYYKDTYDLLAKIE,-0.646
18,HMKRLLLPGDLAGVRRHLLDRENSFHILRVLRLARGSTIEAMDDAGNRFSATLAGVKAGRALFDLAAKI,-0.245
19,HMKRLPAQMGGGDGVLRVPGLNNFVYVTIADKTLPAFNNRVPPKKGLRIWVGYSPEEPNLFQVLSTRTD,0.0233
20,HMKRLPMRKIRDVLRLSADGLSTRKIGVSLTIGRTTVQAYLDRAAEVDLSWPLPPEMSDTDLERLIYPR,-0.119
21,HMKRNLVSVLDHIVGIGPKRRQSLRTHFGSLEKIKEASVEELAAAPGMNRTSAEAVRHFFDAQQELRGK,0.207
22,HMKRRSVIVSVVRAQVRQSADEAAAVVFEAEKNVSLDYLETMPGGWVKVRHRDGQTGFVRVNQIWG,-0.79
23,HMKRSFGYIRLLPSKRYQASYIGPDSQRHAAPETFTRKMDAEGWLSAERRLIEWDQWTSPEQRAAQARLD,0.127

row,Sequence,soluble fraction (log2)
1,HMKRTRLEEAMDWLREQLNDGPVAYATLKDEAPKAEITLSTLRAAGEALRVDKQKKGVQWGGWTWSLPR,0.404
2,HMKRVTRQRTEILRVIDESERPLGPQEILQAGREAIPSLSIATIYRTLRDLLAEELIKTVALPGDSPRYES,-0.0601
3,HMKSARDDILSALDKAGEPLSMKDIAELSGRKLSTLRAQMTRLVAEGAVQATAAAHSPDRKYRK,-0.133
4,HMKSARQIAILEIIAEKSIETQEDLADALRLRGFQVTQATVSRDIKELRLVKALAPDGTYRYATAEK,0.264
5,HMKSEIRKKNSQIILDAAEHEFSVHGYRGTSVQMIADRSGLPKANLHYYYKSKSALYGAVLDRIL,0.109
6,HMKSERHALILSLIEKKNVETQEDLAELLKERGVAVTQATVSRDIKELRLIKVLSETGGYKYATVDKAE,0.109
7,HMKSIETVAELVAELKKLNPNAKISNIDGTYTLEEDINTITLPKDFKYDNNLGINNKIDDFTPYISLDVKA,-0.132
8,HMKSIRIPFILTEGPNSQKITIDIDSDEEFRIGDVFDEDDKLWSINQILISGDRKAKMAIASEVTSISALR,-0.797
9,HMKSKYLIKIEGDFDEKDLYKYLINVSIVNHTKNNGFTEVEFYNDNYSLQQNFLKSMLNDGIIITEFKKVE,-0.558
10,HMKSLHSEVTDRIRQLIVESHLQPGQRVPELEISRDLGVSRTPIREALKVLAAEGLVELLPLRGAMVK,-0.104
11,HMKSLLTARQLEVFEIARNKGYWTTPRKISLVELSKLLDISKSTLSVLLHSIEGKVMEEFYEEIRQ,0.0209
12,HMKSNIIPLSLKKPQRLDIFLTNYFVDLSRTQIKKMITDGNIKVNDLIAKPSLKLIGDEIIFYTLPK,-0.698
13,HMKSNNPLDHVRVKQRGASWAYYFEKAKVDGKRRRGEGGGYATEQDARMAGVEAYNAYIGGGAK,0.109
14,HMKSPVKLILRGSIYHIKISAVVNGQRIFVRESSHTTDKREAEQYANKRFAQLVEETEFRTN,-0.907
15,HMKSQSIFNVKKGDTLSHIAVHVLKKNKQKVTPEAINKMVSNIAFRNKIKNPDLIFPGQKLVLEY,-0.0458
16,HMKSQVVAYSDFVKAVNQKQINEVQIQGDKIRAINKAGEEITVTWLQNDQKLMDDLLDNNVKTIFLE,-0.282
17,HMKSSYSGNFKQNVVEYMHNNHLSATETANHFKLGGGSVVLRWERIYYEEGPQALYEERRGR,0.144
18,HMKSYAQIAEILSGQQPNTSRKEGSNLAVHADWIDALIAKYGTALRPEEANEVVKKEIGIVFSHVLEN,-1
19,HMKSYQKITPATEGNYLTTYREGDDIKTYEGVKAMYTPADFDASSVREITPEEHQSYQKAKEQALQEETEQ,0.0912
20,HMKTALDEAKDFLNGALSKGHRPASDVVDEAKEASISEKTLKRAKLAIGIITRKEGFGSEGKWVWELPAR,0.0771
21,HMKTATAKIKATPFGWLRVRETPSLNGAEIARVNSGESYKILERGEGWIKIKVSDTVEGWVSEAYVELS,-0.236
22,HMKTEKYIQVISGTVNVRSGPGTSYAEIAKIDASQIYVVTAKEGEWLKISLANGTIGYVAGWLVKEVTG,-0.331
23,HMKTEVNITPGIIDWIERYVQTDKISSSMTEDFQHWKSGTKKPTFNQVEAFSKAINVPLGYFFLKTPPAE,-0.902

row,Sequence,soluble fraction (log2)
1,HMKTFSFEILADTVKKQRKAKGMTQAELSEATGINRSMIGQMENMTFKPSIEQLEALSQALDFNVIDLYTE,-0.767
2,HMKTGHLPVTVIIDGRIISDNLYKTGLSNNWLADQLRKNSIKSSEDVFFAYLNPERKFIYQLRSNS,-0.098
3,HMKTGNIVMVNLGWKGKYYSIKMFFPQVSKPSRKDVQDQIEKIYPGGKLYTFVVSNYEPGEPMLHA,-0.164
4,HMKTITLDEAQEIALAEVDGKVTRAVEETDDGRSYYEFDIITNDQKHELEVDASSGKITKNEIDEDYVPS,-0.0471
5,HMKTITVEDEQAGKRLDKALAELFPHYSRSALEKLIKEGQVLVNKSFVKSKYSLKLGDEISLQFEQL,0.0205
6,HMKTKILAPIPGSIMVVDVKVGDTVKVGDRLVQLEAMKMENNITSEKAGKITAVLVTAGQKVLQNEVMIEL,-0.52
7,HMKTLLSMNIKNLRKKKNMTLEELAEKVGTSKQTIQRYESGKISNIPSDKIELLAKYLDTTPAKLMGW,0.187
8,HMKTLNKRQQDIINLAREEGFVTVEHLSEYFKVTQQTIRRDLGYLSENLYLARTYGGAFFQS,-0.535
9,HMKTTKLEELDMQKEFILKNGKYGFGVYIGGKYIGLTDIGTVNSFKDSLQLPVVSLSDIDFKTFAEKF,-1.34
10,HMKTYEILFDILSRESDYISGEKLAQELGISRTSIWKAIQHLEKEGVHIESVKNKGYKLLSGDLLIAEKI,-0.343
11,HMKTYGGDNSLHKFDEHHSWMVAKYGPVVKQTINGETKWLKVKKDLTLAQVKKMKLEDVLLPKSQT,0.245
12,HMKVDRLVSMILILLEQQRVGAQELADRFEVSVRTIYRDMEAINQAGIPVRSTSGVGGGFEIM,-0.314
13,HMKVFREERLQLILEKLIHEKKVVVSDLVKYFNVSPSLIRMDLAELEKRDLILRTHGGAILPD,-0.0668
14,HMKVKEYKLVDWISTFTKNEGYGISQKAAMLLAEFLGDDLSRIANEIEKLKLLVEKGTTINDVHIEENI,-0.721
15,HMKVLFLESIEGSASMGEIKDVANGYARNFLFPNGFAVPATPKNLKNVEELQAKELEIQTERDNWAA,-0.713
16,HMKVSDLIGMLGRVTGELAPTGIVLVGNKTWTAISEDASVIASGEQVQVRSVAGLILTVSHQVD,-0.954
17,HMKVSVPDIMDNSSLRQAEAKLRALGFRVTEPEYISGEKDWVYSVTYKGRTLNAGDKVPHEALLTLHVGNG,≥ 0.43
18,HMKVTADVVVADRLKAWIISNNLKPGDRLPTEQKLSEELGVARHTLREGIKRLSQLGIIGSRTGSGMYVKN,0.158
19,HMKWIEILKSKDGNYALLQDEKDTQFVVASGYNPDAAEDQKWGHGSYFIYWNNKENKAEMLMNAIDLFRYR,-1.34
20,HMKYEFEFPYWSNKEAKHMIVTINYPNGTRATASIQDNDGSNPDYKRIMEEFGEEQIDANTEEGLKRR,-0.816
21,HMKYEGEDEYYASLVTEKIAAIGTVTEESEDAIKEARAAYDALTSAQKKLVTNYDVLDEAEK,0.302
22,HMKYGPSTVATLKVARLGEMGAFLDAETGDTSDDILLHKTQQTAPVKVGDEVEVFLYLDPKRRLTASMRV,-1.07
